Patent US20250257148A1 (CROSSLINK THERAPEUTICS, published 2025)

B1: Construct 159: CH1-CH2-TAP1 NBD (Cys-less; modified D-helix; D668N)-(G4S)2-anti-CD3 VHH-(G4S)2-anti-BCMA VHH-Hisx8 (other)
chain: METEFFQQNQTGGGGSGLQTVRSFGGGGGSGGSGLLTPLHLEGLVQFQDVSFAYPNRPDVLVLQGLTFTLRPGEVTALVGPNGSGKSTVAALLQNLYQPTGGQLLLDGKPLPQYEHRYLHRQVAAVGQEPQVFGRSLQENIAYGLTQKPTMEEITAAAVKSGAHSFISGLPQGYDTEVDEAGSQLSGGQRQAVALARALIRKPSVLILDNATSALDAGNQLRVQRLLYESPERYSRSVLLITQHLSLVEQADHILFLEGGAIREGGTHQQLMEKKGSYWAMVQAPADAPEGGGGSGGGGSGGGGSQVQLVESGGGLVQPGGSLRLSCAASGSIFSANTMGWYRQAPGKQRELVAGMNTSGSTVYGDSVKGRFTISRDNAKNIAYLQMNSLIPEDTAVYYCTLVQRGPNYWGQGTQVTVSSGGGGSGGGGSEVQLVESGGGLVQAGGSLRLSCAASGRTFTMGWFRQAPGKEREFVAAISLSPTLAYYAESVKGRFTISRDNAKNTVVLQMNSLKPEDTALYYCAADRKSVMSIRPDYWGQGTQVTVSSHHHHHHHH
notes: Single polypeptide expressed in E. coli
B2: Construct 156: Hisx8-anti-BCMA VHH-(G4S)2-anti-CD3 VHH-(G4S)2-CH1-CH2-TAP1 NBD (Cys-less; modified D-helix; D668N) (other)
chain: MHHHHHHHHEVQLVESGGGLVQAGGSLRLSCAASGRTFTMGWFRQAPGKEREFVAAISLSPTLAYYAESVKGRFTISRDNAKNTVVLQMNSLKPEDTALYYCAADRKSVMSIRPDYWGQGTQVTVSSGGGGSGGGGSQVQLVESGGGLVQPGGSLRLSCAASGSIFSANTMGWYRQAPGKQRELVAGMNTSGSTVYGDSVKGRFTISRDNAKNIAYLQMNSLIPEDTAVYYCTLVQRGPNYWGQGTQVTVSSGGGGSGGGGSETEFFQQNQTGGGGSGLQTVRSFGGGGGSGGSGLLTPLHLEGLVQFQDVSFAYPNRPDVLVLQGLTFTLRPGEVTALVGPNGSGKSTVAALLQNLYQPTGGQLLLDGKPLPQYEHRYLHRQVAAVGQEPQVFGRSLQENIAYGLTQKPTMEEITAAAVKSGAHSFISGLPQGYDTEVDEAGSQLSGGQRQAVALARALIRKPSVLILDNATSALDAGNQLRVQRLLYESPERYSRSVLLITQHLSLVEQADHILFLEGGAIREGGTHQQLMEKKGSYWAMVQAPADAPEGGGGS
notes: Single polypeptide expressed in E. coli; Here CH1-CH2 means Coupling Helix 1 and Coupling Helix 2 (the CAP)
B3: Construct 157: Hisx8-anti-BCMA VHH-(G4S)2-CH1-CH2-TAP1 NBD (Cys-less; modified D-helix; D668N)-(G4S)2-anti-CD3 VHH (other)
chain: MHHHHHHHHEVQLVESGGGLVQAGGSLRLSCAASGRTFTMGWFRQAPGKEREFVAAISLSPTLAYYAESVKGRFTISRDNAKNTVVLQMNSLKPEDTALYYCAADRKSVMSIRPDYWGQGTQVTVSSGGGGSGGGGSETEFFQQNQTGGGGSGLQTVRSFGGGGGSGGSGLLTPLHLEGLVQFQDVSFAYPNRPDVLVLQGLTFTLRPGEVTALVGPNGSGKSTVAALLQNLYQPTGGQLLLDGKPLPQYEHRYLHRQVAAVGQEPQVFGRSLQENIAYGLTQKPTMEEITAAAVKSGAHSFISGLPQGYDTEVDEAGSQLSGGQRQAVALARALIRKPSVLILDNATSALDAGNQLRVQRLLYESPERYSRSVLLITQHLSLVEQADHILFLEGGAIREGGTHQQLMEKKGSYWAMVQAPADAPEGGGGSGGGGSGGGGSQVQLVESGGGLVQPGGSLRLSCAASGSIFSANTMGWYRQAPGKQRELVAGMNTSGSTVYGDSVKGRFTISRDNAKNIAYLQMNSLIPEDTAVYYCTLVQRGPNYWGQGTQVTVSS
notes: as for B1

Columns and labels:
[1] = molecular target: the molecule itself; assay: size exclusion chromatography, 1 mM ATP against 1 mM ADP; ATP mediated shift read as homodimerization
Procedure: (§1) To evaluate the behavior of the constructs in the presence of ATP and ADP samples of the purified protein (1 mg each) were buffer-exchanged on PD-10 columns (Cytiva 17085101) according to manufacturer instructions. For the buffer exchange PD-10 desalting columns were equilibrated with target buffer (20 mM Tris-Cl pH 8.0, 50 mM NaCl, 5 mM MgCl₂, 10% glycerol) containing either 1 mM ATP or 1 mM ADP. One milligram (100 μl of 10 mg/ml stock) of protein was added to each column along with 2.4 ml of target buffer, the column was centrifuged at 1000×g for 2 minutes in a 50-ml conical tube, and the eluate was collected. Buffer-exchanged proteins were then concentrated to 0.5 ml (˜60 μM) and loaded onto a Superdex S200 Increase column (Cytiva) equilibrated in the appropriate buffer containing ATP or ADP and eluted at 0.5 ml/min.

[2] = molecular target: the molecule itself; assay: size exclusion chromatography, 1 mM ATP against 1 mM ADP; homodimerization
Procedure: as §1

Protein	binding result [1]	binding result [2]
B1	binds	
B2	binds	
B3		binds
